Data on 1 molecule can be found in patent US20220409668A1, “GENETICALLY MODIFIED HUMAN STEM CELL EXPRESSING A MUTANT HUMAN CYTOCHROME P450 2B6 PROTEIN AND USE THEREOF IN THE TREATMENT OF CANCER” (ASSISTANCE PUBLIQUE-HOPITAUX DE PARIS, priority 2019, published 2022).

This data set can be described thus: affinity of cytochrome P450 2B6 protein for cyclophosphamide (CPA) and Vmax. Type of data set: biochemical, human. From the text:
In a particularly advantageous embodiment, said variants and fragments have an affinity for CPA that is identical, substantially identical or greater than that of the mutant human cytochrome P450 2B6 protein (CYP2B6*) of SEQ ID No. 1. Methods making it possible to assay said activity and said affinity are well known to a person skilled in the art and are particularly described in Nguyen et al., Mol. Pharmacol., 2008, 73: 1,122-1,133.

B1: CYP2B6*: mutant human cytochrome P450 2B6 protein of SEQ ID No. 1 with 114V, 199M and 477W residues (protein, listed as Homo sapiens)
chain: MELSVLLFLALLTGLLLLLVQRHPNTHDRLPPGPRPLPLLGNLLQMDRRGLLKSFLRFREKYGDVFTVHLGPRPVVMLCGVEAIREALVDKAEAFSGRGKIAMVDPFFRGYGVVFANGNRWKVLRRFSVTTMRDFGMGKRSVEERIQEEAQCLIEELRKSKGALMDPTFLFQSITANIICSIVFGKRFHYQDQEFLKMMNLFYQTFSLISSVFGQLFELFSGFLKYFPGAHRQVYKNLQEINAYIGHSVEKHRETLDPSAPKDLIDTYLLHMEKEKSNAHSEFSHQNLNLNTLSLFFAGTETTSTTLRYGFLLMLKYPHVAERVYREIEQVIGPHRPPELHDRAKMPYTEAVIYEIQRFSDLLPMGVPHIVTQHTSFRGYIIPKDTEVFLILSTALHDPHYFEKPDAFNPDHFLDANGALKKTEAFIPFSLGKRICLGEGIARAELFLFFTTILQNFSMASPVAPEDIDLTPQECGWGKIPPTYQIRFLPR
For the molecule B1, the “affinity for CPA relative to the wild-type protein (CYP2B6 WT)” value (fold greater than CYP2B6 WT, substitutions I114V, L199M, V477W) was “more than 8 times”. In addition, the “Vmax compared with wild-type protein” value (versus CYP2B6 WT, substrate CPA) is recorded as “same Vmax”.
